{"source": "paper PMC3781060", "molecules": {"B1": {"name": "GST fusion protein of the Receptor Binding Domain of α2-macroglobulin (RBD) (domain or fragment)", "chain": "GAATFTRTGKAAQVTIQSSGTFSSKFQVDNNNRLLLQQVSLPELPGEYSMKVTGEGCVYLQTSLKYNILPEKEEFPFALGVQTLPQTCDEPKAHTSFQISLSVSYTGSRSASNMAIVDVKMVSGFIPLKPTVKMLERSNHVSRTEVSSNHVLIYLDKVSNQTLSLFFTVLQDVPVRDLKPAIVKVYDYYETDEFAIAEYNAPCSKDLGNA"}}, "key": {"[1]": {"biological_target": "low-density lipoprotein (LDL) receptor-related protein-1 (LRP1) (rat (endogenous in PC12 cells and primary DRG neurons)) (UniProt G3V928)", "sequence (G3V928 20-4545)": "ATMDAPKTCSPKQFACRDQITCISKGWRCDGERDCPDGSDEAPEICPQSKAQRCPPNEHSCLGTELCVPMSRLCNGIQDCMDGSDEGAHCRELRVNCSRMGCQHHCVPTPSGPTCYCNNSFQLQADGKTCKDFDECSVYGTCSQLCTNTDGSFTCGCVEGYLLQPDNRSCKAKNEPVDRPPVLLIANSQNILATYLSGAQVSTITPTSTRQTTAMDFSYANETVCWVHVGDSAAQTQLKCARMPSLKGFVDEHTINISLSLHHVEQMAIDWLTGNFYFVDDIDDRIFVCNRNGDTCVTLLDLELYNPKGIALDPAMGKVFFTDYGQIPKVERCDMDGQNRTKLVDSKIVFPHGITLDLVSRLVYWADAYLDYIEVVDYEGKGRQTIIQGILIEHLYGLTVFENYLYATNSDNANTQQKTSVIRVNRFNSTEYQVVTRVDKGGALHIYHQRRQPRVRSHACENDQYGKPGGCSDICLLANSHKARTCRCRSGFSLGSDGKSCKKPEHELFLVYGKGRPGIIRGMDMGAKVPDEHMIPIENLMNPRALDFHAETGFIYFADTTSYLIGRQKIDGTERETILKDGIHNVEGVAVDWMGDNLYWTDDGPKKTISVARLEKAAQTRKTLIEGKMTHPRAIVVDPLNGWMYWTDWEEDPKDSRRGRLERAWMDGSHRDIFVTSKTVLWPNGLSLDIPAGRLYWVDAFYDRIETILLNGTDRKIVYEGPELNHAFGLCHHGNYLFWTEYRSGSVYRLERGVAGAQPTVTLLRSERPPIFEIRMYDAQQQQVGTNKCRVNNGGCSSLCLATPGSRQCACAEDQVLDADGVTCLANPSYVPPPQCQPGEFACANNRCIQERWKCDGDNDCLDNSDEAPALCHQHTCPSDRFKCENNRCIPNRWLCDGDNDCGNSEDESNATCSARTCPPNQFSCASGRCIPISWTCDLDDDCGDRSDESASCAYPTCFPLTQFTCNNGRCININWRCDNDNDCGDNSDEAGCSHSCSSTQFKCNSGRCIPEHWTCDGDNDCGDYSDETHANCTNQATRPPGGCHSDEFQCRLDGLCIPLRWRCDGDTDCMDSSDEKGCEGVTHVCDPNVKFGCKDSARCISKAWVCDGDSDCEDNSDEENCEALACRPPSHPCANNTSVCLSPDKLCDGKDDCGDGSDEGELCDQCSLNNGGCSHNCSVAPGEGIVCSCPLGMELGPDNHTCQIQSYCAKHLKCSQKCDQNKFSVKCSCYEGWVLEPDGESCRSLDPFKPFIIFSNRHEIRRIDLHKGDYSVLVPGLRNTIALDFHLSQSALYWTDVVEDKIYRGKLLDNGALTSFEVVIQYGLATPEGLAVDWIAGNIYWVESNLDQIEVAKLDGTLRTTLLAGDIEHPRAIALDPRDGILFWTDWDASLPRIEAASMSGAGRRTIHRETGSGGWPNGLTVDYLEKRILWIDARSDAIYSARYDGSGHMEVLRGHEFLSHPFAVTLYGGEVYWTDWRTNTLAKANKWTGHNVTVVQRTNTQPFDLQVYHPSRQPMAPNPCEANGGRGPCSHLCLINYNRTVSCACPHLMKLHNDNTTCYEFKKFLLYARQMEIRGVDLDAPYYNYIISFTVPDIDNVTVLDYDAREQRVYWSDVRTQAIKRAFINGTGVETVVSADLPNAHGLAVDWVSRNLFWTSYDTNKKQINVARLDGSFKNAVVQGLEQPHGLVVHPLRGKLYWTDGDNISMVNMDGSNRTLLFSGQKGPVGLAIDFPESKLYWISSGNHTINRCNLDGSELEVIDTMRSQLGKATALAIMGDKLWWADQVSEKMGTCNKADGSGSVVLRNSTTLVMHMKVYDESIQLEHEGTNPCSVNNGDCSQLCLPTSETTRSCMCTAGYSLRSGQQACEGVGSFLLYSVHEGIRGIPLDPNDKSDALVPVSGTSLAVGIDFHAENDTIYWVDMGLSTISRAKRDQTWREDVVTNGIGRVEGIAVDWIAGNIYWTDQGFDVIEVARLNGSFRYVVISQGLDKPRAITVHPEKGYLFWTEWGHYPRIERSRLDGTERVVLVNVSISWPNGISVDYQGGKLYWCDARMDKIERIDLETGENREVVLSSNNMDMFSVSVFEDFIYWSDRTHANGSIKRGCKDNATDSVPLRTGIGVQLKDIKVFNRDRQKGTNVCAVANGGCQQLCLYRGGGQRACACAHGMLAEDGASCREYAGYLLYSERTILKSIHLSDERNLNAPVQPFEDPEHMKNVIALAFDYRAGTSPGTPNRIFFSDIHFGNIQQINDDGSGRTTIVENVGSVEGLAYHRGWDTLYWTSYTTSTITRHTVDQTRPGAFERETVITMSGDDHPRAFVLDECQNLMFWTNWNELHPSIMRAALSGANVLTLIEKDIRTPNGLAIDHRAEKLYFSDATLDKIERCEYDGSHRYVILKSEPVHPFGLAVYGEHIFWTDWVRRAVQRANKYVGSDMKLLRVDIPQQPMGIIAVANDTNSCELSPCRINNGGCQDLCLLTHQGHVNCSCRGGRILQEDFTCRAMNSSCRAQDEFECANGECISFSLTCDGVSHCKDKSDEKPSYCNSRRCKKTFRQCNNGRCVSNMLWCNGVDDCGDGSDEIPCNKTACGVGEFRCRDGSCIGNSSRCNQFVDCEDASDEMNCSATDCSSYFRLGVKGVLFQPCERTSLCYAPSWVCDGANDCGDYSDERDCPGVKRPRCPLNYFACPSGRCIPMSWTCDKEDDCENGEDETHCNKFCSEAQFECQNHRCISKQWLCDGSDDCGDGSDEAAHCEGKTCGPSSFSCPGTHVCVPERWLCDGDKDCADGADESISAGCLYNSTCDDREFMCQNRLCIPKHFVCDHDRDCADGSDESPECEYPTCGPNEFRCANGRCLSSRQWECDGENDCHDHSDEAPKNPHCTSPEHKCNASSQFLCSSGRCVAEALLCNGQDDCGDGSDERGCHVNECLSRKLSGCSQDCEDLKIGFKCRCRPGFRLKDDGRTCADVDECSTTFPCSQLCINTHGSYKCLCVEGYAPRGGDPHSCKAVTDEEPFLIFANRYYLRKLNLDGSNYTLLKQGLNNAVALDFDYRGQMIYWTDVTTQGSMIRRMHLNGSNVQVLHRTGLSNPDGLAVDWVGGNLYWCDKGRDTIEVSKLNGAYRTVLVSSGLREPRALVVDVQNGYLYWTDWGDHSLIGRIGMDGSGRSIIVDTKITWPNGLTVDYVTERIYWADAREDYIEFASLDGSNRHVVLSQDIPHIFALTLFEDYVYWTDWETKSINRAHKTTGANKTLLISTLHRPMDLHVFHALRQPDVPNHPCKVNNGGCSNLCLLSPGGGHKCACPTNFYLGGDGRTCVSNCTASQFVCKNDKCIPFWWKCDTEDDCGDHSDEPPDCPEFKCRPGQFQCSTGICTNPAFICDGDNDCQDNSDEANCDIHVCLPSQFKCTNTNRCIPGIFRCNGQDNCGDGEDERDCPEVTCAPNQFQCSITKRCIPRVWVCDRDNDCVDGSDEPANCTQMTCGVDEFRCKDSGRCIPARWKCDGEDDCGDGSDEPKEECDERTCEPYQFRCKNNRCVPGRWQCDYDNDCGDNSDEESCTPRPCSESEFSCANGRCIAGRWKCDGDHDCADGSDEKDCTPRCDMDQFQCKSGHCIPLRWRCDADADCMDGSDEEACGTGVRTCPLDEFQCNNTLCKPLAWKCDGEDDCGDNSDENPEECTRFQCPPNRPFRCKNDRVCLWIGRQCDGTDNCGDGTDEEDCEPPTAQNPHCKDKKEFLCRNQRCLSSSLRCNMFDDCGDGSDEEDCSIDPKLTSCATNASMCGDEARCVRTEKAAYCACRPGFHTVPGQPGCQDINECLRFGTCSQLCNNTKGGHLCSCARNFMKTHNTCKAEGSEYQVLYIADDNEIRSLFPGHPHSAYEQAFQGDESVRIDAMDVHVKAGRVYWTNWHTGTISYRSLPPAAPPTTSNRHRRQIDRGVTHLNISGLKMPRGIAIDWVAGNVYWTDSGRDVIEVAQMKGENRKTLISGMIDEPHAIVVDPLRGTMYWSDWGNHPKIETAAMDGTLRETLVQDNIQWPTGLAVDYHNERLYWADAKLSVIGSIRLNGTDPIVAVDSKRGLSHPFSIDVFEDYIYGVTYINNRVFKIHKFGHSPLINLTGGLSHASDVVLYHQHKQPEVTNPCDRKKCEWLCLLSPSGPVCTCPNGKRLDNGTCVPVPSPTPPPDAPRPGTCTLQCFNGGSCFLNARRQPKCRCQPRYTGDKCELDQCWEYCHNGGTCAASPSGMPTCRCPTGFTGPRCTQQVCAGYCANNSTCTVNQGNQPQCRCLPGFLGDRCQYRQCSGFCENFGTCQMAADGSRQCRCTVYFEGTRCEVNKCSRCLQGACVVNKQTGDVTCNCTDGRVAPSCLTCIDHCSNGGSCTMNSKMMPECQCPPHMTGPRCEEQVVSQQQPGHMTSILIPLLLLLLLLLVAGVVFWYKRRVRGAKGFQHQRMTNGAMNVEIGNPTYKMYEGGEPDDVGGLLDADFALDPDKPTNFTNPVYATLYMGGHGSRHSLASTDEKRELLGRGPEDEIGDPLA"}, "[2]": {"biological_target": "low-density lipoprotein (LDL) receptor-related protein-1 (LRP1) (rat (endogenous in PC12 cells and primary DRG neurons)) (UniProt G3V928)", "remark": "listed apart in the source"}}}
{"molecule": "GST fusion protein of the hemopexin domain of matrix metalloprotease-9 (MMP-9-PEX) (domain or fragment)", "values": [{"measurement": "neurite outgrowth of primary embryonic sensory neurons cultured for 2 weeks with MMP-9-PEX (100 nM), quantified as GAP-43 mRNA compared to GST", "setting": "[1]", "value": 15, "unit": "fold"}]}
{"molecule": "B1", "values": [{"measurement": "neurite outgrowth of primary embryonic sensory neurons cultured for 2 weeks with RBD, compared to GST controls", "setting": "[2]", "value": "> 40", "unit": "fold"}]}
